Literature values in publication PMC4065351.

System: Cys2 (position 2, ----ECG----)
Conditions: free reduced glutathione

Glutathione (GSH, gamma-L-glutamyl-L-cysteinylglycine) (not applicable (ubiquitous low-molecular-weight thiol))
pKa: 8.93
